Data as given in patent US20170044259A1 (published 2017).
Changes are numbered by the printed parent chain. Blank lines part the entries; values can stand above or below the binder they belong to.

Legend:
[1] = molecular target: human PD-1-His (R & D systems, Minneapolis, Minn.) (human, UniProt Q15116 25-167); assay: BLI
[2] = molecular target: T1, human PD-1-Fc (R and D systems, Minneapolis, Minn.) (human, UniProt Q15116 25-167); assay: ELISA; lower left panel
[3] = molecular target: T1, human PD-1-Fc (R and D systems, …); assay: ELISA; upper left panel
[4] = molecular target: T1, human PD-1-Fc (R and D systems, …); assay: ELISA; lower right panel
[5] = molecular target: T1, human PD-1-Fc (R and D systems, …); assay: ELISA; upper right panel
[6] = molecular target: T1, human PD-1-Fc (R and D systems, …); assay: inhibition ELISA; hPDL-1 Fc blockade
[7] = molecular target: T1, human PD-1-Fc (R and D systems, …); assay: inhibition ELISA; hPDL-1 Fc blockade; remark: listed apart in the source
[8] = molecular target: T1, human PD-1-Fc (R and D systems, …); assay: inhibition ELISA; hPDL-2 Fc blockade
[9] = molecular target: T2, mouse PD-1 expressed on HEK293 cells (mouse, UniProt Q02242 25-288); assay: flow cytometry cell binding
T2 chain: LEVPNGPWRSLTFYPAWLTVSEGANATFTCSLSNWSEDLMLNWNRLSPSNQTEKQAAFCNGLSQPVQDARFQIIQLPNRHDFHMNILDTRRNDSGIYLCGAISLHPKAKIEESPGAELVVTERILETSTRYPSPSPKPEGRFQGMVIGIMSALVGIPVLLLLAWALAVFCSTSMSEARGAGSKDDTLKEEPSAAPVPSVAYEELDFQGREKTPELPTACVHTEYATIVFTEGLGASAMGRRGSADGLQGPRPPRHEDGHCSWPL

[10] = molecular target: T2, mouse PD-1 expressed on HEK293 cells; assay: flow cytometry blocking; blocking of biotin-mPD-L1
[11] = molecular target: T2, mouse PD-1 expressed on HEK293 cells; assay: flow cytometry blocking; blocking of biotin-mPD-L2
[12] = molecular target: T1, human PD-1-Fc (R and D systems, …); assay: inhibition ELISA; hPDL-2 Fc blockade; remark: listed apart in the source
[13] = molecular target: T1, human PD-1-Fc (R and D systems, …); assay: inhibition ELISA; hPDL-1 Fc blockade; remark: listed apart in the source
[14] = molecular target: T1, human PD-1-Fc (R and D systems, …); assay: inhibition ELISA; hPDL-2 Fc blockade; remark: listed apart in the source

T1 sequence (Q15116 25-167): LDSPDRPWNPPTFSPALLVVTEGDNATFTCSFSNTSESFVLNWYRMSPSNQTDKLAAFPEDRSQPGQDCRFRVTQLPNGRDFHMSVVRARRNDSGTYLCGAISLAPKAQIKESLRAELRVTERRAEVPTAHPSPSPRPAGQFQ
Sequence of human PD-1-His (R & D systems, Minneapolis, Minn.) (Q15116 25-167): as above

Kd [1]: 1.48 nM
Kd [2]: 0.16 nM
Kd [3]: 0.162 nM
Kd [4]: 0.176 nM
Kd [5]: 0.18 nM
IC50 [6]: 1.4 nM
IC50 [7]: 4.25 nM
IC50 [8]: 2.94 nM
B1: A1.5 (antibody)
heavy: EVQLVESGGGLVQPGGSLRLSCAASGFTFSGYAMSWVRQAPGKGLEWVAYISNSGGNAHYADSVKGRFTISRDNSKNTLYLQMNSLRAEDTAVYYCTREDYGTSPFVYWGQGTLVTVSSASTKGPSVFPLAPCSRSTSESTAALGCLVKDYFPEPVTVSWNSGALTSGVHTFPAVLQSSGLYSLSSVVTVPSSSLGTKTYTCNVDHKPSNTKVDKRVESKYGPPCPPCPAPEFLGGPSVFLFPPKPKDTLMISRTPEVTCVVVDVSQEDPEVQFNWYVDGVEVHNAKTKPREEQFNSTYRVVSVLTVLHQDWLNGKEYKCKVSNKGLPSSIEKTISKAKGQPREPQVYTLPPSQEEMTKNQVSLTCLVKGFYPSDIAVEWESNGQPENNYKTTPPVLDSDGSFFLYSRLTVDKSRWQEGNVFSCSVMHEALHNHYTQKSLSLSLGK
light: DIQLTQSPSSLSASVGDRVTITCRASESVDAYGISFMNWFQQKPGKAPKLLIYAASNQGSGVPSRFSGSGSGTDFTLTISSMQPEDFATYYCQQSKDVPWTFGQGTKLEIKRTVAAPSVFIFPPSDEQLKSGTASVVCLLNNFYPREAKVQWKVDNALQSGNSQESVTEQDSKDSTYSLSSTLTLSKADYEKHKVYACEVTHQGLSSPVTKSFNRGEC

EC50 [9]: 4.31 nM
EC50 [10]: 6.06 nM
EC50 [11]: 5.9 nM
B2: J43v2 mIgG2a (antibody, V domains shown)
VH: EVRLLESGGGLVKPEGSLKLSCVASGFTFSDYFMSWVRQAPGKGLEWVAHIYTKSYNYATYYSGSVKGRFTISRDDSRSMVYLQMNNLRTEDTATYYCTRDGSGYPSLDFWGQGTQVTVSS
VL: YELTQPPSASVNVGETVKITCSGDQLPKYFADWFHQRSDQTILQVIYDDNKRPSGIPERISGSSSGTTATLTIRDVRAEDEGDYYCFSGYVDSDSKLYVFGSGTQLTVLG

Kd [1]: 12.4 nM
IC50 [12]: 1.2 nM
IC50 [6]: 1.32 nM
IC50 [7]: 3.73 nM
IC50 [8]: 3.07 nM
B3: C1.1 (antibody, V domains shown)
VH: EVQLVESGGGLVQPGGSLRLSCAASGFTFSNYAMSWVRQAPGKGLEWVAYISNGGGDTHYADSLKGRFTVSRDNSKNTLYLQMNSLRAEDTAVYYCARENYGTSPFVYWGQGTLVTVSS
VL: DIQLTQSPSSLSVSVGDRATITCRASESVDNYGISFMNWFQQKPGKAPKLLIYAASNQGSGVPSRFSGSGSGTDFTLTISSMQPEDFATYYCQQSKDVPWTFGQGTKLEIKR

IC50 [13]: 1.92 nM
IC50 [14]: 1.29 nM
B4: A1.4 (antibody, V domains shown)
VH: B3 VH with N31G, G54S, D57N, T58A, L64V, V70I, A97T, N100D
VL: B3 VL with V13A, A19V, N31S
